US8377889B2, “Adiponectin receptor fragments and methods of use” (Siemens Healthcare Diagnostics Inc., priority 2007, dated 2013)
“Also recorded” adds a separate entry of the source. Like-named read-outs stand apart in the source and are kept apart here. Residues, ends and D or L forms follow the SMILES beside them.

Key:
ADAM-17 = ADAM-17 (Homo sapiens, UniProt P78536); assay: Inhibition of ADAM-17 (TACE) activity; assay type: biochemical; conditions: for ADAM 17 inhibition: Example 9, Table 3
Description: (§1) The cleavage enzymes for ECM32 are also potential therapeutic targets. ECM32 sequence at the cleavage site was matched to Elastase (X-VV) and ADAM17 (X-VVAA) as potential enzymes (proteases) able to cleave or bind ECM32. The peptides of SEQ ID NO:1 (ECM32) and SEQ ID NO:2 (ECM30) were tested at levels of 0 mg/L, 12.5 mg/L, 25 mg/L, and 50 mg/L for their effect on cleavage enzymes.
The effect of ECM32 (SEQ ID NO:1), ECM30 (SEQ ID NO:2), ECM25 (SEQ ID NO:5), ECM10 (SEQ ID NO:6), ECM12 (SEQ ID NO:7), and ECM9 (SEQ ID NO:8) on ADAM-17 activity was evaluated.

[1] = target: T1, insulin degradation enzyme (IDE) (Homo sapiens, UniProt P14735); assay: Inhibition of IDE activity; assay type: biochemical; conditions: Example 9, Table 3
normal and diabetic rats = assay: Effect on plasma glucose level in normal and diabetic rats; assay type: in vivo, rat; conditions: injected at 2 mg/kg
Description: The effect of ECM32 (SEQ ID NO:1) and ECM30 (SEQ ID NO:2) on the plasma glucose levels in normal and diabetic rats was evaluated. The peptides were injected at 2 mg/kg along with a control group. […] This could be due to ADAM-17 cleavage of ECM30 into IDE inhibitory forms in vivo.

[2] = target: T1, insulin degradation enzyme (IDE); assay: Inhibition of IDE activity; assay type: biochemical; conditions: Example 8; 0-50 μg/ml for ECM32, 0-100 μg/ml for ECM30
Description: The effect of ECM32 (SEQ ID NO:1) and ECM30 (SEQ ID NO:2) on IDE activity over time was evaluated at four different dose levels (0, 12.5, 25, and 50 μg/ml for ECM32 and 0, 25, 50, and 100 μg/ml for ECM30). The results are shown in FIG. 9 for ECM32 (SEQ ID NO:1) and FIG. 10 for ECM30 (SEQ ID NO:2). […]

Elastase = Elastase inhibition; assay type: biochemical; conditions: Example 4; 0, 12.5, 25, 50 mg/L
Description: as §1

diabetic rats = assay: Plasma insulin testing in diabetic rats; assay type: in vivo, rat; conditions: 2 mg/mL and 10 mg/mL in saline intravenously
Description: The peptide of SEQ ID NO:2 (ECM30) was tested by treating diabetic rat groups of 8 animals at 2 mg/mL and 10 mg/mL in saline intravenously and compared to a control group (bovine serum albumin in saline). All three groups were fasted on Day 0. Fasted plasma glucose and insulin were be measured on Day 1 at 0, 30, 60, 90, and 120 minutes post glucose dose. Plots of the data are shown in FIG. 3 and FIG. 4, for the insulin level and % of pre-dose glucose in ng/ml, respectively, as a function of time.

normal rats = assay: Plasma insulin testing in normal rats; assay type: in vivo, rat
Description: The peptides of SEQ ID NO:1 (ECM32) and SEQ ID NO:2 (ECM30) were tested by treating normal rat groups of 6 to 8 animals at 2 mg/mL in saline intravenously and compared to an untreated control group (0.9% saline solution only). All three groups were fasted on Day 0. Fasted plasma glucose and insulin were measured on Day 1 at 0, 30, 60, 90, and 120 minutes post glucose dose (5 mL/kg). Plasma levels of ECM30 and ECM32 were also measured. Plots of the data are shown in FIG. 1 and FIG. 2, for the insulin level in ng/mL and glucose level in mg/dL, respectively, as a function of time.

[3] = Plasma ECM32 (AdipoR1) level in normal and diabetic rats; assay type: in vivo; conditions: rat, 2 mg/kg, 120 min
Description: The effect of ECM32 (SEQ ID NO:1) on the plasma adiponectin and ECM32 levels in normal and diabetic rats was evaluated. The peptide was injected at 2 mg/kg along with a control group.

ADAM-17, sequence (P78536 215-824, species assumed): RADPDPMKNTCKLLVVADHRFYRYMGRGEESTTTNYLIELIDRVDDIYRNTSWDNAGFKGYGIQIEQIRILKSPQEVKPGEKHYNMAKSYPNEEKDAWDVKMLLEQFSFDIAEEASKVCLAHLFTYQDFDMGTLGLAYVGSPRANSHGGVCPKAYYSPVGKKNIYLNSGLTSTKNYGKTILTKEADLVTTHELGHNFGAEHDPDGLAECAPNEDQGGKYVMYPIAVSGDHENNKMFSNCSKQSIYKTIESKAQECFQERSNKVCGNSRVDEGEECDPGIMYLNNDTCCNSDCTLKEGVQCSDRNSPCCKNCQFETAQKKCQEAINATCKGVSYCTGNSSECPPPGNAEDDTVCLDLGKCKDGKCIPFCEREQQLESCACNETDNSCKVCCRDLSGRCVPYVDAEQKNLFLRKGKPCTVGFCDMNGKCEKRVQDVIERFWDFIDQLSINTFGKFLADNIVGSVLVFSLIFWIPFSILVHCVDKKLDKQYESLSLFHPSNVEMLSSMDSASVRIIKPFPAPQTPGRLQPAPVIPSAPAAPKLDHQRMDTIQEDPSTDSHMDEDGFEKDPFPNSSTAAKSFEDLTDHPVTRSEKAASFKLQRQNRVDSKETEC

In the case of “SGCTDDTLL [ECM9, ADIPOR1 fragment, 9 amino acids]”, the “ADAM 17 inhibition” value (ADAM-17) is reported as “no significant effect on ADAM-17 activity”, the “ADAM 17 inhibition” value (ADAM-17; listed as ECM 9) is reported as “negative” and the IDE inhibition [1] is reported as “inhibit IDE activity”. For the same compound, the IDE inhibition ([1]; listed as ECM 9) was “positive”.

In the case of “HFYGVSNLQEFRYGLEGGCTDDTLL [ECM25, ADIPOR1 C-terminal fragment, 25 amino acids]”, the “ADAM 17 inhibition” value (ADAM-17) is reported as “no significant effect on ADAM-17 activity”, the “ADAM 17 inhibition” value (ADAM-17; listed as ECM 25) is reported as “negative” and the IDE inhibition [1] is reported as “inhibit IDE activity”. The IDE inhibition ([1]; listed as ECM 25) was “positive”.

With “HVLVVAAAFVHFYGVSNLQEFRYGLEGGCT (listed as Homo Sapiens) [ECM30, ADIPOR1 fragment, 30 amino acids, uncleaved form]” the plasma glucose levels (normal and diabetic rats) was “lowered glucose levels, but at longer time points”, the “IDE activity over time” value [2] was “no significant effect on IDE over time” and the elastase inhibition (Elastase) was “Neither ECM30 nor ECM32 showed elastase inhibition”. The “inhibitory effect on ADAM-17 (% TACE control activity)” value (ADAM-17; Example 4, 0, 12.5, 25, 50 mg/L) was “did not significantly inhibit”, the “ADAM 17 inhibition” value (ADAM-17) was “no significant effect on ADAM-17 activity” and the “ADAM 17 inhibition” value (ADAM-17; listed as ECM 30) was “negative”. The plasma insulin (diabetic rats) was “did not increase insulin”, the “plasma insulin compared to the control group” value (normal rats; 2 mg/mL in saline intravenously, 0-120 min post glucose dose) was “marked elevation in the plasma insulin” and the “insulin peak relative to control” value (normal rats; 30 minute time point) was “twice that observed for the control”. For the same compound, the IDE inhibition [1] was “no significant effect on IDE” and the IDE inhibition ([1]; listed as ECM 30) was “negative”.

With “VVAAAFVHFY [ECM10, ADIPOR1 fragment, 10 amino acids]” the “ADAM 17 inhibition” value (ADAM-17) was “no significant effect on ADAM-17 activity”, the “ADAM 17 inhibition” value (ADAM-17; listed as ECM 10) was “negative” and the IDE inhibition [1] was “inhibit IDE activity”. For the same compound, the IDE inhibition ([1]; listed as ECM 10) was “positive”.

`CC(C)C[C@H](NC(=O)[C@H](CC(C)C)NC(=O)[C@@H](NC(=O)[C@H](CC(=O)O)NC(=O)[C@H](CC(=O)O)NC(=O)[C@@H](NC(=O)[C@H](CS)NC(=O)CNC(=O)CNC(=O)[C@H](CCC(=O)O)NC(=O)[C@H](CC(C)C)NC(=O)CNC(=O)[C@H](Cc1ccc(O)cc1)NC(=O)[C@H](CCCNC(=N)N)NC(=O)[C@H](Cc1ccccc1)NC(=O)[C@H](CCC(=O)O)NC(=O)[C@H](CCC(N)=O)NC(=O)[C@H](CC(C)C)NC(=O)[C@H](CC(N)=O)NC(=O)[C@H](CO)NC(=O)[C@@H](NC(=O)CNC(=O)[C@H](Cc1ccc(O)cc1)NC(=O)[C@H](Cc1ccccc1)NC(=O)[C@H](Cc1c[nH]cn1)NC(=O)[C@@H](NC(=O)[C@H](Cc1ccccc1)NC(=O)[C@H](C)NC(=O)[C@H](C)NC(=O)[C@H](C)NC(=O)[C@@H](NC(=O)[C@@H](N)C(C)C)C(C)C)C(C)C)C(C)C)[C@@H](C)O)[C@@H](C)O)C(=O)O` [ECM32] (H-VVAAAFVHFYGVSNLQEFRYGLEGGCTDDTLL-OH; N-terminus and C-terminus assumed) showed a level at 2 h ([3]; Diabetic Rats (ZDF), read-out: ECM32 (AdipoR1) in Plasma, Mean ± SD) of 0.0951 ± 0.0361 µg/mL and a level at 2 h ([3]; Normal Rats (SD)) of 0.113 ± 0.0185 µg/mL.

In the case of “HFYGVSNLQEFR [ECM12, ADIPOR1 fragment, 12 amino acids]”, the “ADAM 17 inhibition” value (ADAM-17) is reported as “no significant effect on ADAM-17 activity; also recorded: negative” and the IDE inhibition [1] is reported as “inhibit IDE activity; also recorded: positive”.
